We go through one molecule from paper doi:10.1101/2020.11.14.20231811.

The target in the data set is SARS-CoV-2 spike S1 subunit (SARS-CoV-2, UniProt P0DTC2 13-685). Briefly: phosphate buffer.

B1: CoV2-RBD-1C, MB/thiol-modified (structured_DNA)
DNA: CAGCACCGACCTTGTGCTTTGGGAGTGCTGGTCCAAGGGCGTTAATGGACA
modifications: 5' methylene blue; 3' thiol C3 (ThioMC3-D)
As for B1, the binding result is given as “binds”.
